Experimental data: publication PMC8202330, “Phosphorylation of the LIR Domain of SCOC Modulates ATG8 Binding Affinity and Specificity” (Journal of Molecular Biology, 2021)
Non-standard residues stand in square brackets, D forms with d. *: point of attachment. Biotin = O=C1N[C@H]2[C@H](CS[C@H]2CCCCC(=O)*)N1; pS = N[C@@H](COP(=O)(O)O)C(=O)O; linker = not defined here

T1: SCOC aa 11–25 LIR peptide (human, reading uncertain)
T1 construct: SCOC isoform 3 aa 11-25; also called SCOC LIR motif (aa 11–25); source: synthetic peptide
T1 peptide: {Biotin-linker}-DSTFTNISLADDIDH-NH2

T2: SCOC pS12/pT15 LIR peptide (human, phosphoserine at 12; phosphothreonine at 15; biotin-linker on the N-terminus; C-terminal amide)
T2 construct: SCOC isoform 3 aa 6-25; also called S12/T15^SCOC; source: synthetic peptide
T2 peptide: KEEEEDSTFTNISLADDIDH

T3: SCOC aa 6–18 LIR peptide (human, reading uncertain)
T3 construct: SCOC isoform 3 aa 6-18; source: synthetic peptide
T3 peptide: {Biotin-linker}-KEEEEDSTFTNIS-NH2

T4: SCOC pS12 LIR peptide (human, phosphoserine at 12; biotin-linker on the N-terminus; C-terminal amide)
T4 construct: SCOC isoform 3 aa 6-25; source: synthetic peptide
T4 peptide: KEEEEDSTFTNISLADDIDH

B1: LC3C (for BLI) (natural protein, human, UniProt Q9BXW4 1-126, looked up)
chain: MPPPQKIPSVRPFKQRKSLAIRQEEVAGIRAKFPNKIPVVVERYPRETFLPPLDKTKFLVPQELTMTQFLSIIRSRMVLRATEAFYLLVNNKSLVSMSATMAEIYRDYKDEDGFVYMTYASQETFG
notes: human LC3C in the pAL plasmid (GST, 3C site)
B2: GABARAP (for BLI) (natural protein, human, UniProt O95166 1-117, looked up)
chain: MKFVYKEEHPFEKRRSEGEKIRKKYPDRVPVIVEKAPKARIGDLDKKKYLVPSDLTVGQFYFLIRKRIHLRAEDALFFFVNNVIPPTSATMGQLYQEHHEEDFFLYIAYSDESVYGL
notes: human GABARAP in the pAL plasmid (GST, 3C site)
B3: SCOC aa 6–20 LIR peptide (peptide)
peptide: {Biotin-linker}-KEEEEDSTFTNISLA-NH2
modifications: reading uncertain
notes: SCOC isoform 3 aa 6-20; also called SCOC LIR motif (aa 6–20); source: synthetic peptide
B4: SCOC WT (aa 6–25) LIR peptide (peptide)
peptide: {Biotin-linker}-KEEEEDSTFTNISLADDIDH-NH2
modifications: reading uncertain
notes: SCOC isoform 3 aa 6-25; also called SCOC (WT) LIR domain peptide; SCOC LIR; source: synthetic peptide
B5: SCOC aa 6–20/pS18 LIR peptide (peptide)
peptide: {Biotin-linker}-KEEEEDSTFTNI[pS]LA-NH2
modifications: reading uncertain
notes: SCOC isoform 3 aa 6-20; source: synthetic peptide

Tests used:
Test in all cases: BLI; biotinylated LIR peptide immobilized on streptavidin biosensor, ATG8 in solution; 25 mM Tris pH 7.5, 150 mM NaCl, 0.5 mM TCEP, 0.1% Tween20, 1 mg/ml BSA; 25 °C; Kd from response against concentration
Conditions in all cases: both partners purified
[1] = target: T1, SCOC aa 11–25 LIR peptide
[2] = target: T2, SCOC pS12/pT15 LIR peptide
[3] = target: T3, SCOC aa 6–18 LIR peptide
[4] = target: T4, SCOC pS12 LIR peptide
[5] = target: B1
[6] = target: B2
[7] = target: T5, GABARAPL1 (for BLI) (human, UniProt Q9H0R8 1-117)
T5 construct: human GABARAPL1 in the pAL plasmid (GST, 3C site)

[8] = target: LC3B (for BLI) (human, UniProt Q9GZQ8 1-120)
[9] = target: T6, GABARAPL2 (for BLI) (human, UniProt P60520 1-117)
T6 construct: human GABARAPL2 in the pAL plasmid (GST, 3C site)
T6 sequence (P60520 whole entry): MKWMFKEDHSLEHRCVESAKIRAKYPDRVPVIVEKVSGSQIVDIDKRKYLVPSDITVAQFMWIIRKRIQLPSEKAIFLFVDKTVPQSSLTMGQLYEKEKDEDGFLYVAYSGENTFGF

[10] = target: T7, LC3A (for BLI) (human, UniProt Q9H492 1-121)
T7 construct: human LC3A in the pAL plasmid (GST, 3C site)

Binder | fold decrease in affinity against SCOC WT LIR peptide [1] [fold] | fold decrease in affinity against SCOC WT LIR peptide [3] [fold] | binding result [5] | binding result [6] | binding result [7] | other results
B1 | 16 | 22 | – | – | – | fold increase in affinity over SCOC WT LIR peptide [2]: 21 fold
B2 | 37 | 4 | – | – | – | fold increase in affinity over SCOC WT LIR peptide [4]: 2 fold
B3 | – | – | binds | binds | binds | –
B4 | – | – | – | – | – | Kd [5]: 8.7 µM; Kd [8]: 270 µM; Kd [9]: 44.4 µM; Kd [6]: 3.6 µM; Kd [7]: 2.3 µM; Kd [10]: 27.8 µM
B5 | – | – | binds | binds | binds | binding result [10]: binds
